B1: unnamed (protein)
chain 1: QVQLVQSGAEVMKPGSSVKVSCKASGYTFSWYWLEWVRQAPGHGLEWMGEIDPGTFTTNYNEKFKARVTFTADTSTSTAYMELSSLRSEDTAVYYCARFSHFSGSNYDYFDYWGQGTLVTVSS
chain 2: EIVMTQSPATLSVSPGERATLSCRASQSIGTNIHWYQQKPGQAPRLLIYYASESISGIPARFSGSGSGTEFTLTISSLQSEDFAVYYCQQSWSWPTTFGGGTKVEIK
B2: unnamed (protein)
chain 1: EVQLVESGGGLVRPGGSLRLSCAASGFTFSNYDMHWVRQATGKGLEWVSAITAAGDIYYPGSVKGRFTISRENAKNSLYLQMNSLRAGDTAVYYCARGRYSGSGSYYNDWFDPWGQGTLVTVSS
chain 2: EIVLTQSPATLSLSPGERATLSCRASQSVSSYLAWYQQKPGQAPRLLIYDASNRATGIPARFSGSGSGTDFTLTISSLEPEDFAVYYCQQRSNWPLTFGGGTKVEIK
B3: unnamed (protein)
chain 1: QVQLVQSGAEVKKPGSSVKVSCKASGYSFTDYHIHWVRQAPGQGLEWMGVINPMYGTTDYNQRFKGRVTITADESTSTAYMELSSLRSEDTAVYYCARYDYFTGTGVYWGQGTLVTVSS
chain 2: DIVMTQTPLSLSVTPGQPASISCRSSRSLVHSRGNTYLHWYLQKPGQSPQLLIYKVSNRFIGVPDRFSGSGSGTDFTLKISRVEAEDVGVYYCSQSTHLPFTFGQGTKLEIK
B4: unnamed (protein)
chain 1: EVQLVESGGGVVQPGRSLRLSCSASGFIFSRYDMSWVRQAPGKGLEWVAYISHGGAGTYYPDSVKGRFTISRDNSKNTLFLQMDSLRPEDTGVYFCARGGVTKGYFDVWGQGTPVTVSS
chain 2: DIQMTQSPSSLSASVGDRVTITCRASGNIHNYLTWYQQTPGKAPKLLIYNAKTLADGVPSRFSGSGSGTDYTFTISSLQPEDIATYYCQHFWSIPYTFGQGTKLQIT
B5: unnamed (protein)
chain 1: QVQLVESGGGVVQPGRSLRLSCAASGFTFSSYGMHWVRQAPGKGLEWVAVISYEESNRYHADSVKGRFTISRDNSKITLYLQMNSLRTEDTAVYYCARDGGIAAPGPDYWGQGTLVTVSS
chain 2: DIVMTQSPLSLTVTPGEPASISCRSSQSLLYSNGYNYLDWYLQKPGQSPQVLISLGSNRASGVPDRFSGSGSGTDFTLKISRVEAEDVGVYYCMQARQTPFTFGPGTKVDIR
B6: unnamed (protein)
chain 1: EVQLLESGGGLVQPGGSLRLSCAASGFTFSHYIMMWVRQAPGKGLEWVSGIYSSGGITVYADSVKGRFTISRDNSKNTLYLQMNSLRAEDTAVYYCAYRRIGVPRRDEFDIWGQGTMVTVSS
chain 2: DIQMTQSPSTLSASVGDRVTITCRASQSISSWLAWYQQKPGKAPKLLIYKASTLESGVPSRFSGSGSGTEFTLTISSLQPDDFATYYCQQYNTYWTFGQGTKVEIK
B7: unnamed (protein)
chain 1: QVQLVESGGGVVQPGRSLRLSCAASGFTFSSFGMHWVRQAPGKGLEWVAYISSGSFTIYYADSVKGRFTISRDNSKNTLYLQMNSLRAEDTAVYYCARMRKGYAMDYWGQGTLVTVSS
chain 2: DVVMTQSPLSLPVTLGQPASISCRSSQIIIHSDGNTYLEWFQQRPGQSPRRLIYKVSNRFSGVPDRFSGSGSGTDFTLKISRVEAEDVGVYYCFQGSHVPHTFGQGTKVEIK
B8: unnamed (protein)
chain 1: QVQLVQPGAEVVKPGASVKLSCKTSGYTFTSNWMHWVKQAPGQGLEWIGEIDPSDSYTNYNQNFQGKAKLTVDKSTSTAYMEVSSLRSDDTAVYYCARGSNPYYYAMDYWGQGTSVTVSS
chain 2: EIVLTQSPAIMSASPGERVTMTCSASSGVNYMHWYQQKPGTSPRRWIYDTSKLASGVPARFSGSGSGTSYSLTISSMEPEDAATYYCHQRGSYTFGGGTKLEIK
B9: unnamed (protein)
chain 1: QVQLQESGPGLVKPSETLSLTCTVSGFSLTSYIVDWIRQPPGKGLEWIGVIWAGGSTGYNSALRSRVSITKDTSKNQFSLKLSSVTAADTAVYYCASAAYYSYYNYDGFAYWGQGTLVTVSS
chain 2: DVVMTQSPLSLPVTLGQPASISCKSSQSLLYTDGKTYLYWFLQRPGQSPRRLIYLVSKLDSGVPDRFSGSGSGTDFTLKISRVEAEDVGVYYCLQSTHFPHTFGGGTKVEIK
B10: unnamed (protein)
chain 1: EVQLVESGGGLVQPGGSLRLSCAASGFSFSDFAMSWVRQAPGKGLEWVATIGRVAFHTYYPDSMKGRFTISRDNSKNTLYLQMNSLRAEDTAVYYCARHRGFDVGHFDFWGQGTLVTVSS
chain 2: DIQMTQSPSSLSASVGDRVTITCRSSETLVHSSGNTYLEWYQQKPGKAPKLLIYRVSNRFSGVPSRFSGSGSGTDFTLTISSLQPEDFATYYCFQGSFNPLTFGQGTKVEIK
B11: unnamed (protein)
chain 1: QVQLVQSGGGLVQPGGSLRLSCAASGFTFSSYYMSWVRQAPGKGLEWVSGIYSDGTTHYGDSVKGRFTISRDNAKNTVYLQLNSLRAEDTAMYYCAKGAGPTWWYALDAWGQGTLVTVSS
chain 2: DIQLTQSPSSVSVSVGERVTIDCKSSQSVLSASNTYLNWYQQKPGQAPQLLIYYASTRESGVPDRFSGSGSGTDFTLTISSLQAEDAAVYYCQQAYRAPVTFGQGTKLEIK
B12: unnamed (protein)
chain 1: EVQLVESGGGVVQPGRSLRLSCSASGFDFTTYWMSWVRQAPGKGLEWIGEIHPDSSTINYAPSLKDRFTISRDNAKNTLFLQMDSLRPEDTGVYFCASLYFGFPWFAYWGQGTPVTVSS
chain 2: DIQLTQSPSSLSASVGDRVTITCKASQDVGTSVAWYQQKPGKAPKLLIYWTSTRHTGVPSRFSGSGSGTDFTFTISSLQPEDIATYYCQQYSLYRSFGQGTKVEIK
B13: unnamed (protein)
chain 1: QVTLRESGPALVKPTQTLTLTCTVSGFSLSAYSVNWIRQPPGKALEWLAMIWGDGKIVYNSALKSRLTISKDTSKNQVVLTMTNMDPVDTATYYCAGDGYYPYAMDNWGQGSLVTVSS
chain 2: DIVMTQSPDSLSVSLGERATINCRASKSVDSYGNSFMHWYQQKPGQPPKLLIYLASNLESGVPDRFSGSGSGTDFTLTISSLQAEDVAVYYCQQNNEDPRTFGGGTKVEIK
B14: unnamed (protein)
chain 1: EVQLVESGGGLVKPGGSLKLSCAASGFKFSRYAMSWVRQAPGKRLEWVATISSGGSYIYYPDSVKGRFTISRDNVKNTLYLQMSSLRSEDTAMYYCARRDYDLDYFDSWGQGTLVTVSS
chain 2: DIQMTQSPSSLSASVGDRVTITCKASRDIRSYLTWYQQKPGKAPKTLIYYATSLADGVPSRFSGSGSGQDYSLTISSLESDDTATYYCLQHGESPFTLGSGTKLEIK
B15: unnamed (protein)
chain 1: QVQLVQSGAEVKKPGSSVKVSCKASGYTFTDYNMHWVRQAPGQGLEWIGYIYPYNGGTGYNQKFKSKATITADESTNTAYMELSSLRSEDTAVYYCARGRPAMDYWGQGTLVTVSS
chain 2: DIQMTQSPSSLSASVGDRVTITCRASESVDNYGISFMNWFQQKPGKAPKLLIYAASNQGSGVPSRFSGSGSGTDFTLTISSLQPDDFATYYCQQSKEVPWTFGQGTKVEIK
B16: unnamed (protein)
chain 1: EVKLEESGGGLVQPGGSMKLSCVASGFIFSNHWMNWVRQSPEKGLEWVAEIRSKSINSATHYAESVKGRFTISRDDSKSAVYLQMTDLRTEDTGVYYCSRNYYGSTYDYWGQGTTLTVSS
chain 2: DILLTQSPAILSVSPGERVSFSCRASQFVGSSIHWYQQRTNGSPRLLIKYASESMSGIPSRFSGSGSGTDFTLSINTVESEDIADYYCQQSHSWPFTFGSGTNLEVK
B17: unnamed (protein)
chain 1: QVQLKESGPGLVAPSQSLSITCTVSGFSVTNYGVHWVRQPPGKGLEWLGVIWAGGITNYNSAFMSRLSISKDNSKSQVFLKMNSLQIDDTAMYYCASRGGHYGYALDYWGQGTSVTVSS
chain 2: SIVMTQTPKFLLVSAGDRVTITCKASQSVSNDVTWYQQKAGQSPKLLIYSASNRYSGVPDRFTGSGYGTAFTFTISTVQAEDLAVYFCQQDYSSFGGGTKLEIK
B18: unnamed (protein)
chain 1: EVQLVESGGGLVQPGGSLRLSCAASGFTFNNYAMNWVRQAPGKGLDWVSTISGSGGTTNYADSVKGRFIISRDSSKHTLYLQMNSLRAEDTAVYYCAKDSNWGNFDLWGRGTLVTVSS
chain 2: not shown
B19: unnamed (protein)
chain 1: EVQLVQSGAEVKKPGASVKVSCKASGYRFTNYWIHWVRQAPGQGLEWIGGINPGNNYATYRRKFQGRVTMTADTSTSTVYMELSSLRSEDTAVYYCTREGYGNYGAWFAYWGQGTLVTVSS
chain 2: DVQVTQSPSSLSASVGDRVTITCRSSQSLANSYGNTFLSWYLHKPGKAPQLLIYGISNRFSGVPDRFSGSGSGTDFTLTISSLQPEDFATYYCLQGTHQPYTFGQGTKVEIK
B20: unnamed (protein)
chain 1: EVQLLESGGGLVQPGGSLRLSCAASGFTFSIYSMNWVRQAPGKGLEWVSSIGSSGGTTYYADSVKGRFTISRDNSKNTLYLQMNSLRAEDTAVYYCAGSQWLYGMDVWGQGTTVTVSS
chain 2: DIQMTQSPSSLSASVGDRVTITCRSSQRIMTYLNWYQQKPGKAPKLLIFVASHSQSGVPSRFRGSGSETDFTLTISGLQPEDSATYYCQQSFWTPLTFGGGTKVEIK

Test: patients with anti-drug antibodies; higher = more immunogenic

| Protein | patients with anti-drug antibodies |
| --- | --- |
| B1 | 6.3% |
| B2 | 3.6% |
| B3 | 8.5% |
| B4 | 16.8% |
| B5 | 1.8% |
| B6 | 7% |
| B7 | 0% |
| B8 | 0% |
| B9 | 4% |
| B10 | 18% |
| B11 | 0% |
| B12 | 0% |
| B13 | 30% |
| B14 | 15.8% |
| B15 | 0% |
| B16 | 30.5% |
| B17 | 100% |
| B18 | 3.9% |
| B19 | 2% |
| B20 | 7.4% |
